Source: patent US20120316107A1 (CASE WESTERN RESERVE UNIVERSITY, published 2012)
Numbering of substitutions follows the chain as printed. Each block holds one binder with its values, some of them ahead of it. Where no end group is shown, it is not given here.

Assays:
[1] = molecular target: T1, Insulin-like Growth Factor receptor (UniProt P08069 31-1367, limits assumed); experiment: competitive displacement of labelled ligand, receptor captured on anti-FLAG IgG plate, two-site sequential model
T1 construct: Captured on antibody-coated microtiter plates; the construct is not described; also called IGFR; IGF Type I receptor
Description: DNA for transfection was prepared according to the method of Mynarcik et al. (J. Biol. Chem., 1997, 272, pp 18650-18655). The receptor cDNAs were expressed transiently in PEAK rapid cells using polyethyleneimine. Cells were harvested by lysis in 0.15M NaCl and 0.1M Tris (pH 8) containing 1% (v/v) Triton X-100 and protease inhibitor cocktail three days post-transfection. Lysates were stored at −80° C. until assay. Receptor-binding assays were performed as described by Mynarcik. Microtiter strip plates (Nunc Maxisorb) were incubated overnight at 4° C. with anti-FLAG IgG ([…] in PBS). Washing, blocking, receptor binding and competitive binding assays with labeled and unlabeled peptides were performed as described.

[2] = molecular target: T1, Insulin-like Growth Factor receptor; experiment: competitive displacement of 125I-IGF-1 from IGFR

Kd [1]: 27.6 nM
Kd [2]: 27.6 nM
B1: single chain insulin (SCI) that is wild type at position B10 (His^A8, Asp^B28, Pro^B29) (ligand)
chain: FVNQHLCGSHLVEALYLVCGERGFFYTDPTGGGPRRGIVEQCCHSICSLYQLENYCN
notes: also called A8-His, B28-Asp, B29-Pro SCI; SCI not containing the Asp^B10 substitution

Kd [1]: 9.89 nM
B2: 57 mer single-chain insulin analogue (His^A8, Asp^B10, Asp^B28, Pro^B29; GGGPRR linker) (ligand)
chain: B1 chain with H10D
modifications: ends and bridges not checked; cysteine pairing not given here
notes: also called 57mer single-chain analogue; 57-mer single-chain Analog
